Test results reported in PMC7917804.
Where a chain is given by its changes, count along the chain named. Names may count otherwise.

B1: FLAG-HA-SBP (FHS)-tagged TNRC6A-SD-WT, Q8NDV7-2 S1332A; S1346A (protein)
chain: PLHQPAMKSFLDNVMPHTTPELQKGPSPINAFSNFPIGLNSNLNVNMDMNSIKEPQSRLRKWTTVDSISVNTSLDQNSSKHGAISSGFRLEESPFVPYDFMNSSTSPAAPPGSIGDGWPRAKAPNGSSSVNWPPEFRPGEPWKGYPNIDPETDPYVTPGSVINNLSINTVREVDHLRDRNSGSSSSLNTTLPSTSAWSSIRASNYNVPLSSTAQSTSARNSDSKLTWSPGSVTNTSLAHELWKVPLPPKNITAPSRPPPGLTGQKPPLSTWDNSPLRIGGGWGNSDARYTPGSSWGESSSGRITNWLVLKNLTPQIDGSTLRTLCMQHGPLITFHLNLPHGNALVRYSSKEEVVKAQKSLHMCVLGNTTILAEFASEEEISRFFAQSQSLTPSPGWQSLGSSQSRLGSLDCSHSFSSRTDLNHWNGAGLSGTNCGDLHGTSLWGTPHYSTSLWGPPSSSDPRGISSPSPINAFLSVDHLGGGGESM
B2: FLAG-HA-SBP (FHS)-tagged full-length TNRC6A, wild type, Q8NDV7-2 S1332A; S1346A (protein)
chain: MDADSASSSESERNITIMASGNTGGEKDGLRNSTGLGSQNKFVVGSSSNNVGHGSSTGPWGFSHGAIISTCQVSVDAPESKSESSNNRMNAWGTVSSSSNGGLNPSTLNSASNHGAWPVLENNGLALKGPVGSGSSGINIQCSTIGQMPNNQSINSKVSGGSTHGTWGSLQETCESEVSGTQKVSFSGQPQNITTEMTGPNNTTNFMTSSLPNSGSVQNNELPSSNTGAWRVSTMNHPQMQAPSGMNGTSLSHLSNGESKSGGSYGTTWGAYGSNYSGDKCSGPNGQANGDTVNATLMQPGVNGPMGTNFQVNTNKGGGVWESGAANSQSTSWGSGNGANSGGSRRGWGTPAQNTGTNLPSVEWNKLPSNQHSNDSANGNGKTFTNGWKSTEEEDQGSATSQTNEQSSVWAKTGGTVESDGSTESTGRLEEKGTGESQSRDRRKIDQHTLLQSIVNRTDLDPRVLSNSGWGQTPIKQNTAWDTETSPRGERKTDNGTEAWGSSATQTFNSGACIDKTSPNGNDTSSVSGWGDPKPALRWGDSKGSNCQGGWEDDSAATGMVKSNQWGNCKEEKAAWNDSQKNKQGWGDGQKSSQGWSVSASDNWGETSRNNHWGEANKKSSSGGSDSDRSVSGWNELGKTSSFTWGNNINPNNSSGWDESSKPTPSQGWGDPPKSNQSLGWGDSSKPVSSPDWNKQQDIVGSWGIPPATGKPPGTGWLGGPIPAPAKEEEPTGWEEPSPESIRRKMEIDDGTSAWGDPSKYNYKNVNMWNKNVPNGNSRSDQQAQVHQLLTPASAISNKEASSGSGWGEPWGEPSTPATTVDNGTSAWGKPIDSGPSWGEPIAAASSTSTWGSSSVGPQALSKSGPKSMQDGWCGDDMPLPGNRPTGWEEEEDVEIGMWNSNSSQELNSSLNWPPYTKKMSSKGLSGKKRRRERGMMKGGNKQEEAWINPFVKQFSNISFSRDSPEENVQSNKMDLSGGMLQDKRMEIDKHSLNIGDYNRTVGKGPGSRPQISKESSMERNPYFDKDGIVADESQNMQFMSSQSMKLPPSNSALPNQALGSIAGLGMQNLNSVRQNGNPSMFGVGNTAAQPRGMQQPPAQPLSSSQPNLRAQVPPPLLSPQVPVSLLKYAPNNGGLNPLFGPQQVAMLNQLSQLNQLSQISQLQRLLAQQQRAQSQRSVPSGNRPQQDQQGRPLSVQQQMMQQSRQLDPNLLVKQQTPPSQQQPLHQPAMKSFLDNVMPHTTPELQKGPSPINAFSNFPIGLNSNLNVNMDMNSIKEPQSRLRKWTTVDSISVNTSLDQNSSKHGAISSGFRLEESPFVPYDFMNSSTSPAAPPGSIGDGWPRAKAPNGSSSVNWPPEFRPGEPWKGYPNIDPETDPYVTPGSVINNLSINTVREVDHLRDRNSGSSSSLNTTLPSTSAWSSIRASNYNVPLSSTAQSTSARNSDSKLTWSPGSVTNTSLAHELWKVPLPPKNITAPSRPPPGLTGQKPPLSTWDNSPLRIGGGWGNSDARYTPGSSWGESSSGRITNWLVLKNLTPQIDGSTLRTLCMQHGPLITFHLNLPHGNALVRYSSKEEVVKAQKSLHMCVLGNTTILAEFASEEEISRFFAQSQSLTPSPGWQSLGSSQSRLGSLDCSHSFSSRTDLNHWNGAGLSGTNCGDLHGTSLWGTPHYSTSLWGPPSSSDPRGISSPSPINAFLSVDHLGGGGESM
B3: FLAG-HA-SBP (FHS)-tagged TNRC6A-SD-WT, Q8NDV7-2 S1332D; S1346D (protein)
chain: B1 chain with A109D, A123D
B4: FLAG-HA-SBP (FHS)-tagged full-length TNRC6A, wild type, Q8NDV7-2 S1616D; S1691D (protein)
chain: B2 chain with A1332S, A1346S, S1616D, S1691D
B5: FLAG-HA-SBP (FHS)-tagged TNRC6A-SD-WT, Q8NDV7-2 S1616D; S1691D (protein)
chain: B1 chain with A109S, A123S, S393D, S468D

Molecular target: poly(A)-binding protein (PABP), P11940
Assay: co-immunoprecipitation with anti-FLAG antibody, Western blot quantified with ImageJ
Conditions: chain shown with the change, HeLa cells, parent: est. 1.0, read off a plot

poly(A)-binding protein (PABP), P11940, sequence (P11940 whole entry): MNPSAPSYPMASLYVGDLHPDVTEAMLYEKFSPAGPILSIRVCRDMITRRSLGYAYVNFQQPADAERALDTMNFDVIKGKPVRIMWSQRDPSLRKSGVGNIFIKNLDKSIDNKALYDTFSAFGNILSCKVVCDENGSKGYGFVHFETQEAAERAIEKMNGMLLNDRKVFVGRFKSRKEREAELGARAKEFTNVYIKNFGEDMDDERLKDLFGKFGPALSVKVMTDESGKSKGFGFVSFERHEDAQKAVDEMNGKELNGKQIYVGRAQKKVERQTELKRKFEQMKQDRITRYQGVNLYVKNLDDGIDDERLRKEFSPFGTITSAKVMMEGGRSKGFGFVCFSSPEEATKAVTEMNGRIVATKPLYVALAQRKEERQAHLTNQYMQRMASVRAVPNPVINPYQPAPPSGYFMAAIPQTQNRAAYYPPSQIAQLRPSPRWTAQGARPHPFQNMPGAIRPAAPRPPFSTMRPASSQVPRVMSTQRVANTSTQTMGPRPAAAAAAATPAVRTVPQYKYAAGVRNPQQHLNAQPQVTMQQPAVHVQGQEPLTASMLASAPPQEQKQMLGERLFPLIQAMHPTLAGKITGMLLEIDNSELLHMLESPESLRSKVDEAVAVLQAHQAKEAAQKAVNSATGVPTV

Binder	response (three independent experiments)	response (two independent experiments)
B1	1.4	–
B2	–	1.7
B3	1.1	–
B4	–	0.89
B5	0.54	–
